Measured values taken from patent publication US20260193317A1, “COMBINATION THERAPY WITH ACTRIIB RECEPTOR VARIANTS AND GLP-1 AGONISTS” (35PHARMA Inc., priority 2023, published 2026).
Like-named read-outs stand apart in the source and are kept apart here. Each block holds one molecule with its values, some of them ahead of it.

Columns and labels:
[1] = Skeletal muscle mass and Mss51 expression in lean mice; assay type: in vivo
Protocol: The effects of P1229 on body composition and metabolism in lean mice were further assessed.
Additional assays were performed to assess the relative expression level of Mss51, a skeletal muscle-specific gene. Mss51 is a key target of myostatin signaling, with a role in fatty acid oxidation, glycolysis, and oxidative phosphorylation.

[2] = test system: follicle-stimulating hormone (FSH); assay: FSH production in DIO mice; assay type: in vivo; details: 3 weeks of treatment
Protocol: Experiments were performed to assess the effects of P1229 on body composition and metabolism in diet-induced obese (DIO) mice. DIO mice were purchased from Jackson Laboratories (#380050). Briefly, mice were fed a high-fat diet (HFD, 60% kcal from fat) from 6 weeks of age until 22 weeks of age (total of 16 weeks on the HFD). […] After 3 weeks of treatments, some animals were sacrificed and scanned by EchoMRI […] (FIGS. 11A-F), while others were sacrificed for tissue collection and RNA analysis. Animals were maintained on the HFD throughout the acclimatization and treatment periods. The murine version of bimagrumab used for these experiments comprises the heavy chain amino acid sequence of SEQ ID NO: 376 and the light chain sequence of SEQ ID NO: 377.
Follicle-stimulating hormone (FSH) is a known biomarker of in vivo target engagement for activin receptor-based traps (See Attie et al. (2013). Muscle Nerve, 47: 416-423). To further validate in vivo target engagement for exemplary agents, FSH production was evaluated in DIO mice, as described above.

[3] = mouse, in vivo, sc
Protocol: Evaluation of pharmacokinetic profiles.
To determine the concentration of P1229 in mouse serum samples, a 96-well plate was coated 1 h at RT with a solution of anti-ectodomain antibody (1 μg/mL in carbonate buffer, 100 μL/well). The plate was then washed three times with buffer (Biolegend #421601). Blocking buffer (1% BSA, 0.05% tween-20 in TBS, 300 μL/well) was added to each well and the plate was incubated for 1 hour at RT with shaking at 300 rpm. The plate was washed three times and Standards, QCs and sample were diluted in assay diluent (1% BSA, 0.05% tween-20 in TBS, 100 μL/well) and loaded in duplicate on the plate for 1 h30 at RT with shaking at 300 rpm. The plate was washed three times and a solution of anti-human Fc antibody conjugated to HRP (Southern Biotech #2049-05, diluted 1 in 20,000 in assay diluent, 100 μL/well) was added to each well and incubated for 1 h at RT with shaking at 300 rpm.

GDF-8 = GDF-8 (Homo sapiens, UniProt O14793); assay: TGFβ-reporter HEK293 cell-based assay: GDF-8 neutralization; details: for IC50: read-out: CBA Potency GDF-8; for CBA potency GDF-8, potency fold-change: relative to reference (P1372 = 1)
Protocol: Potency testing by neutralization on cell-based assays. Characterization of the activin A, activin B, GDF-8, and GDF-11 inhibition potency (IC50) of the fusion proteins was performed using a cell-based reporter assay. TGFβ-reporter HEK293 cells were obtained from InvivoGen (San Diego, CA, cat. no. hkb-tgfb) and were maintained following the manufacturer's instructions. Briefly, cells were grown in high-glucose DMEM, containing 10% heat-inactivated FBS, 30 μg/mL blasticidin, 250 μg/mL hygromycin B, and 100 μg/mL zeocin (hereafter, “growth medium”). Once the cells reached 70-80% confluence, they were detached in growth medium by gently tapping on the flask. For all assays, cells were seeded in 96-well plates at a density of 20,000 cells per well in growth medium. Cells were left to attach for 10 minutes at room temperature (RT) prior to being transferred to a 37° C. incubator (5% CO2) overnight. The next day, treatments were prepared by combining the appropriate concentration of agent with activin A, activin B, GDF-8, or GDF-11 for 30 min at RT (shaking at 150 rpm). Treatments were conducted in high-glucose DMEM (serum-free and with no selection agents), and the final concentration of cytokine (ligand) was 0.3 nM. Growth medium was removed from the culture plates, and cells were treated with the appropriate mixes of fusion protein and cytokine. Treatment duration was for 18-22 h at 37° C. (5% CO2). All treatments were performed in technical duplicates and at least one or two independent experiments were conducted for each cytokine. At the end of the treatment period, supernatants were transferred to a new plate, and centrifuged at 300 RPM for 3 min. Forty microlitres of supernatant from each condition was transferred to a new plate, into which 180 μL of Quanti-Blue reagent (InvivoGen, cat. no. rep-qbs) was added. Quanti-Blue reagent was prepared following the manufacturer's instructions. Samples were incubated for 45 min at 37° C. At the end of the incubation, absorbance was read at 650 nm. The data were plotted in GraphPad Prism, which was used to calculate IC50 values as a non-linear regression.

Molecule: P1229: hActRIIB L33W, 14 aa linker, IgG1-DL Fc; SEQ ID 211
tibialis anterior and gastrocnemius weight ([1]; 25 mg/kg twice weekly, seven days): significantly increased
Mss51 expression in the tibialis muscle relative to vehicle ([1]; 5 or 25 mg/kg twice weekly, one week): dose-dependent decrease in Mss51 expression
FSH production [2]: significant decreases in FSH production
PK profile alone versus in the co-formulation [3]: comparable PK profile

CBA potency GDF-8, fold-change vs reference (GDF-8; D 0): 1 (ref)
IC50 (GDF-8; D 0): 0.27 nM
IC50 (GDF-8; D 7, 2-8° C.): 0.22 nM
IC50 (GDF-8; D 7, RT): 0.24 nM
CBA potency GDF-8, fold-change vs reference (GDF-8; D 7 after storage at 2-8° C.): 1 (ref)
CBA potency GDF-8, fold-change vs reference (GDF-8; D 7 after storage at room temperature): 1 (ref)
IC50 (GDF-8; D 14, 2-8° C.): 0.35 nM
IC50 (GDF-8; D 14, RT): 0.36 nM
IC50 (GDF-8; D 28, 2-8° C.): 0.45 nM
IC50 (GDF-8; D 28, RT): 0.44 nM
CBA potency GDF-8, potency fold-change (GDF-8; D 28, storage at 2-8° C.): 1 (ref) fold
CBA potency GDF-8, potency fold-change (GDF-8; D 28, storage at room temperature): 1 (ref) fold
IC50 (GDF-8; D 56, 2-8° C.): 0.34 nM
IC50 (GDF-8; D 56, RT): 0.36 nM
B1: P1372: hActRIIB L33W, 14 aa linker, IgG1 YTE-DL Fc; SEQ ID 231 (protein)
chain: ETRECIYYNANWELERTNQSGLERCEGEQDKRWHCYASWRNSSGTIELVKKGCWLDDFNCYDRQECVATEENPQVYFCCCEGNFCNERFTHLPEAGGPEVTYEPPPTGGGGSGGGGSGGGGTHTCPPCPAPELLGGPSVFLFPPKPKDTLYITREPEVTCVVVDVSHEDPEVKFNWYVDGVEVHNAKTKPREEQYNSTYRVVSVLTVLHQDWLNGKEYKCKVSNKALPAPIEKTISKAKGQPREPQVYTLPPSRDELTKNQVSLTCLVKGFYPSDIAVEWESNGQPENNYKTTPPVLDSDGSFFLYSKLTVDKSRWQQGNVFSCSVMHEALHNHYTQKSLSLSPG
